The values that follow come from the supplement of paper PMC12042874.

± gives the uncertainty stated by the source.

A short description of the series: amyloid nucleation score (Sup35N fusion, yeast selection) (log enrichment); library NNK3; higher = more nucleation; inactive = no reads after selection. In short, it runs like this:
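After 24 hours of induction with 100 μM copper sulfate, psi-negative yeast expressing peptides of 20 random codons fused to Sup35N were grown for 7 days at 30°C on medium lacking adenine and uracil. Input and output plasmid inserts were sequenced with Illumina, and sequences with under 100 input reads were discarded. Scores for nucleation are the DiMSum log enrichment of output over input reads, centred on the mode score of non-aggregating sequences.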
Consider DFHIKERG, for which the amyloid nucleation score entry was “inactive”.
With NYWYITKERGSNLVWSNGDE the entry was “inactive”.
For the substance EYSLMVNSTIDYFGDSNICE, the amyloid nucleation score result is “inactive”.
The figure for NFSIRCTWLVVNNAVDLRDN is 2.94 ± 0.049; for HSDMLDYVSMVFFMVIRAGM it is “inactive”.
With KLFGTKIVIVDVDSLCYMVL, the amyloid nucleation score result was “inactive”.
With FRCFYGTRSWRKECGESAFL the entry was “inactive”.
Take YWNYQMVCFCVNCV: the amyloid nucleation score turned out to be 2.17 ± 0.075.
On to ALTHHVVYLMAGKNVTTS, for which the amyloid nucleation score result was “inactive”.
With KFGDPIRFWVTYYTNRSWSG, the amyloid nucleation score was -0.732 ± 1.4.
With VWVLHRRRSKYMQVTVWLDL the entry was “inactive”; with ITNCFWHWIRAISYANAANS, “inactive”; with DGMTMFLSYN, -0.208 ± 1.1.
The entry for ETHLDTLPVVYHLWLLHVLM is “inactive”.
As to FSRSTTDVSINSGWKM, the amyloid nucleation score entry is “inactive”.
ILTHIVWLFVRLSCMNWNWL: the amyloid nucleation score entry was “inactive”.
Regarding GMQAGTGSKCCGRTGQI, the amyloid nucleation score entry was “inactive”.
With MRVKGLIRWWETGCEKKSTA the entry was “inactive”; with PTAFCNSSQYV, “inactive”; with LFRTDFMQTLLCHTIQLLYP, “inactive”.
Turning to LFYYSRTVESYLSNVCLVIR, the amyloid nucleation score entry is “inactive”.
With VDISFVSAWKDLLLGRLVCD the entry was “inactive”; with FPYSKIRCLCDGRNDRLGGL, -0.043 ± 0.67.
With GVYYSCAFSTLIKGVNRSTV the entry was “inactive”; with APVKLAGLHTSVRARGIGYW, -0.192 ± 1.3; with MFRHVWVTNEVLSCGYIVTG, “inactive”.
Consider EFALTIWCLGAALCIIKSLS, for which the amyloid nucleation score result is “inactive”.
Turning to VWAYFDMFDTFCYKVTARMK, the amyloid nucleation score entry is “inactive”.
RWCMVIDSTNWCSCDRKHGA displayed an amyloid nucleation score of 1.49 ± 0.13.
ILQYRYKGWNRKGYHQQPVI: the amyloid nucleation score result was “inactive”.
The figure for WYVYKFCEPVGDRGRFVWCL is -0.212 ± 0.84; for YTYQTLLADLNKGFMYSRRW it is “inactive”.
For the substance FDSQGEPVPKPSAMMRGRMC, the amyloid nucleation score entry is “inactive”.
The figure for FRVAAMAISGTISCQYFQGL is 0.739 ± 0.17.
With HILWHTSSSGELLPMSP, the amyloid nucleation score result was “inactive”.
With KNDGTIVQM the entry was “inactive”.
Regarding FLYYLLMLVRVRCFEQVVIV, the amyloid nucleation score result is “inactive”.
MFLGNVMTILIEMGFQKALT came in with an amyloid nucleation score of 0.93 ± 0.17.
With ILEYAVVNHQVNLVIVSIGH the figure was 1.65 ± 0.068.
The figure for LRRYALLVNAAQKEMRYSSS is -0.616 ± 1.1; for ACMLNEWRNVVRPYLCLSKN it is “inactive”.
In the case of WVGNTVKHKLGLVGNCGSCA, the amyloid nucleation score was -0.73 ± 1.9.
With MVLKLNESSMIFKDTTYP the entry was “inactive”.
Regarding LFSQCSLITHG, the amyloid nucleation score entry was “inactive”.
As to VCSVTFMLVLLCMRHCLITR, the amyloid nucleation score result is “inactive”.
In the case of HKDICLNFSVDHLDVMSQCA, the amyloid nucleation score entry is “inactive”.
As for FVCLT, the amyloid nucleation score amounted to 1.32 ± 0.13.
In the case of SFKSTSYIITFNWKIVAVWK, the amyloid nucleation score result is “inactive”.
Take PNSLRRCVSRLVPRGLPRKR: the amyloid nucleation score result is “inactive”.
Take CCRSWRSYSTVVFICGFLYW: the amyloid nucleation score entry was “inactive”.
Consider FCLVGIFTCRGTLNTLLALH, for which the amyloid nucleation score result is “inactive”.
The figure for SFTNFFNGSVGICFRCTLMC is 2.28 ± 0.052; for SHQFYMSARTNW it is 0.701 ± 0.24; for KLFSYRRRPNINCLG it is “inactive”.
The entry for ISWNLRGVVLLTYTICSWCI is “inactive”; for HCVTLWLKSYL it is “inactive”; for CNLRMCNGA it is “inactive”.
As for YLVSDE, the amyloid nucleation score entry was “inactive”.
The entry for YASDWVRRPGRN is “inactive”.
The figure for VENLHNHYQYVFKNGMCDG is 0.263 ± 0.22; for DPFVRDIWQREYQWES it is “inactive”.
With TLWAEYTNLSEKEIDDYIDL the entry was “inactive”.
The substance TIFGCRSSQCSMFVLVFDFY yielded an amyloid nucleation score of 1.51 ± 0.12.
The entry for MDRIYLHISVEVSASFMSDA is “inactive”.
For the substance NMILFISCEIPGRGVFGRCC, the amyloid nucleation score was found to be 1.13 ± 0.11.
The entry for SRQRIDYFMVRRSGSWSRQV is “inactive”.
For IKFDGIIADFSSITVVLECT, the amyloid nucleation score was 0.708 ± 0.25.
With VYNLIRLFLYPTVISSITPL the entry was “inactive”; with LLSIYCY, “inactive”; with IILLSGDSSSRIQEVKVGKK, “inactive”.
Turning to YESRGEGVMPSTQLWMSRLG, the amyloid nucleation score entry was “inactive”.
Turning to CAQMPCMLENGP, the amyloid nucleation score result is “inactive”.
CFWFNHSNRRGQFFH: the amyloid nucleation score was -0.286 ± 0.77.
As to SGSWHKH, the amyloid nucleation score result was “inactive”.
Take TRWHDGKRVSWKSTPNMLSV: the amyloid nucleation score entry is “inactive”.
GADVSSHVKIFINYNLFSFI came in with an amyloid nucleation score of 2.55 ± 0.076.
On to TPHLSCNLRYG, for which the amyloid nucleation score result is “inactive”.
With VNKVKILCYGHHFKGMWDLA the entry was “inactive”.
With IITVSGPLVVLVLSGKGSNN the figure was 2.42 ± 0.062; with CLVTGWISSILNWFLYWNWE, “inactive”; with YENCSMYYSTTGIPAMCEIT, “inactive”.
With TFSFILRSNLLYENRSVDRA the figure was 1.57 ± 0.077.
The substance FLLVMYT gave an amyloid nucleation score of 0.167 ± 0.25.
The entry for IGLSAKIRFWVMWRMRHTR is “inactive”.
VTQLWVLNSVSVYWKDLVAP displayed an amyloid nucleation score of -0.319 ± 1.1.
With ATSEYWILLVFYLCDIAQVS the entry was “inactive”; with PVHSMASQLPYNNNTTKCLV, “inactive”.
The entry for PCYCSFVSRSYYCKDYVRNS is “inactive”; for LLCMTPNIVNSRLMTYYPCH it is “inactive”.
For ALTLMCFSVLGFYYVVMYCF, the amyloid nucleation score result is “inactive”.
In the case of QHKKKIAF, the amyloid nucleation score result was “inactive”.
The entry for RPGYHSVVKHAKRLVEVNR is “inactive”; for NHYCDFAVWSTFNLTLHHSL it is “inactive”.
The entry for MRGFFCRIH is “inactive”; for MNFSEH it is “inactive”; for NLGTATLHLSYYMDPLTT it is “inactive”.
With WSFNGSNECISRLDINLNVF the figure was 0.407 ± 0.15; with YYCSDLSRSMDRSLRSTWPF, “inactive”.
For the substance LNRSSFHLELITSTCKVFLV, the amyloid nucleation score entry is “inactive”.
On to CLLCGSRHFRHRLGFVSYRI, for which the amyloid nucleation score entry is “inactive”.
For ANTFKVWPKDICAGTVYM, the amyloid nucleation score result was “inactive”.
With SAYSSGLRSKAYLYTASCTP the entry was “inactive”; with CGCGWVLWPYKYRSDWLGGK, “inactive”; with YYSKPPCVLTDVGLIWLRPY, “inactive”.
In the case of QDNVKVVGAVGFYDILNGVE, the amyloid nucleation score result is “inactive”.
For WVWIVSMVRRGSEAFEALEM, the amyloid nucleation score entry was “inactive”.
The entry for AVRSFLTWISMN is “inactive”.
Regarding HNDSYRMWGRGPPIVLT, the amyloid nucleation score result is “inactive”.
The entry for FFCKRFYSKFPDQWLAHSVE is “inactive”.
Turning to FLACSDVVYSDN, the amyloid nucleation score result is “inactive”.
For DLAINGSAAQTVVLRAERSY, the amyloid nucleation score entry is “inactive”.
With KYCRRVYSSAETLYVLTHI the entry was “inactive”; with SRSVSESDVMGTVGIYAEFS, “inactive”.
With GTWSVMCSYEPMAR the entry was “inactive”; with RHRIRWSMRRNWSACVQ, “inactive”; with QSTGCLYSYLLANVGKSSGK, “inactive”.
TFNYYACTPIKFVWYLGTCP registered an amyloid nucleation score of 2.54 ± 0.072.
For the substance GAMLRVGV, the amyloid nucleation score entry is “inactive”.
With ALESTMVWLSQRQGRFVHSL the figure was -0.284 ± 0.7.
Consider GITRVRSSFVSAASHV, for which the amyloid nucleation score entry is “inactive”.
The entry for VLIYRRGFNYLRVLCCTTGF is “inactive”.
With IEACSVSM, the amyloid nucleation score is 0.059 ± 0.98.
On to ARLETHCFMRRRGQF, for which the amyloid nucleation score result is “inactive”.
The figure for NIMVDHS is -0.476 ± 1.4; for GTDSFAIYSWKIRLLSERYP it is “inactive”; for YRAECNNFLMPLCCTEFFQI it is 2.2 ± 0.087.
Regarding CCFSTGCHEKCSSLDDMCVF, the amyloid nucleation score entry is “inactive”.
Take HPWEARGHPVLHERRNLHSI: the amyloid nucleation score result is “inactive”.
With IATCTRFIDYVYRDVSSGPC the figure was 0.725 ± 0.11.
